Assay results taken from publication PMC3715468, “Structural and Functional Characterisation of TesA - A Novel Lysophospholipase A from Pseudomonas aeruginosa” (PLoS ONE, 2013).

Legend:
Assay in all cases: purified protein
Assay type in all cases: biochemical, Pseudomonas aeruginosa
[1] = test system: CCCCCC(=O)OC[C@@H](O)COP(=O)([O-])OCC[N+](C)(C)C; conditions: pH 7.2; 37.0 °C
[2] = test system: CCCCCCCCCCCC(=O)OC[C@@H](O)COP(=O)([O-])OCC[N+](C)(C)C; conditions: pH 7.2; 37.0 °C
[3] = test system: CCCCCCCCCCCCCCCC(=O)OC[C@@H](O)COP(=O)([O-])OCC[N+](C)(C)C; conditions: 20 mM Tris-HCl pH 7.2, 37 °C, 0.25% (v/v) Triton X-100, 1.5 mM NaN3, 30 min

Substance: TesA (Pseudomonas aeruginosa PAO1)
- Km [1]: 7.22 ± 0.92 mM
- kcat/Km [1]: 110000 M⁻¹ s⁻¹
- Km [2]: 1.78 ± 0.17 mM
- kcat/Km [2]: 1.1e+06 M⁻¹ s⁻¹
- Km [3]: 2.04 ± 0.18 mM
- kcat [3]: 921 s⁻¹
- kcat/Km [3]: 450000 M⁻¹ s⁻¹
